Biological target: TSH receptor (solubilized porcine thyroid membrane) (porcine (endogenous in thyroid membrane)) (UniProt Q8SPP9)
Assay: radioligand binding

Chain of UniProt Q8SPP9 (Q8SPP9 22-764): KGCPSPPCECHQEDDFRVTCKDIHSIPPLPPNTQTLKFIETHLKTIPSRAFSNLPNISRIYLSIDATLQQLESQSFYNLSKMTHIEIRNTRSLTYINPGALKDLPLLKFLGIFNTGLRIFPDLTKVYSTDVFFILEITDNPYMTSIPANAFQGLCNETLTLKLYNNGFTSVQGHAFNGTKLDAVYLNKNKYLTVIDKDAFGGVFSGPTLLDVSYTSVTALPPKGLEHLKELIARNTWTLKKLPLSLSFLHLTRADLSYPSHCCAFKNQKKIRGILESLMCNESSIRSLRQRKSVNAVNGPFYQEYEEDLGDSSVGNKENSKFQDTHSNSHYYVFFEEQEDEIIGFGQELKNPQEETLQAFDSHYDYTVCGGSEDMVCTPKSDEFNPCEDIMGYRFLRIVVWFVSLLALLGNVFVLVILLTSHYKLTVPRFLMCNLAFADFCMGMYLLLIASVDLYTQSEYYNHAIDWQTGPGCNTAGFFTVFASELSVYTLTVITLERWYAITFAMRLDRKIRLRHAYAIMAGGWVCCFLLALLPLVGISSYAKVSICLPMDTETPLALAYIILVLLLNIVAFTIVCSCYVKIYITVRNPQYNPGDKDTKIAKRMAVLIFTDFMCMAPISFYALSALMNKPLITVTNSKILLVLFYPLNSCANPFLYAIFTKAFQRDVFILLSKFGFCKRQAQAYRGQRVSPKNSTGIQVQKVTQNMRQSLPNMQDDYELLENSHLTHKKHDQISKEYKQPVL

cpm of bound 125I-bTSH (TSH receptor present, heat-treated normal pooled IgG): 6950 cpm | cpm of bound 125I-bTSH (TSH receptor present, normal pooled IgG): 7810 cpm | cpm of bound 125I-bTSH, T B (Bo): 7000 cpm
Substance: 125I-labelled bTSH (bovine thyroid-stimulating hormone) (from UniProt P01217 25-120; P01223 21-132) (ligand)
